The text below walks through data of the nanobody polyreactivity screen of Harvey et al. (2022).

The series is described as follows: yeast display, Sf9 membrane polyspecificity reagent, FACS + sequencing; frameworks hold sequencing errors. The method in brief:
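After 36–48 hours of galactose induction, yeast (Saccharomyces cerevisiae BJ5465) displaying a synthetic nanobody library were stained at 4 °C for 1 hour with 10% biotinylated, detergent-solubilized Sf9 membrane reagent. Streptavidin microbeads enriched the stained cells before FACS sorting into low and high (top ~1%) gates on anti-HA and streptavidin fluorescence. Each clone's polyreactivity label reflects its gate of origin.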
Take “QVQLVESGGGLVQAGGSLRLSCAASGLTFSRYAMGWYRQAPGKERELVAAITWSGSSTYYADSVKGRFTISRDNAKNTVYLQMNILKQEDTAVYYCAARYGYSRGPYYRSDYWGQGTQVTVSS”: the “polyreactivity (PSR sort gate)” value was “high polyreactivity”.

Consider “QVQLVESGGGLVQAGGSLRLSCAASGRIFPVYAMGWYRQAPGKERELVAAISRRGGSTYYADSVKGRFTISRDNAKNTVYLQMNSLKPEDTAVYYCAATAYYYWWWYGGDMDYWGQGTQVTLSS”, for which the “polyreactivity (PSR sort gate)” value is recorded as “high polyreactivity”.

“QVQLVESGGGLVQAGGSLRLSCAASGSTFSVNAMGWYIQAPGKEREFVAAIRWPGGSTYYADSVKGRFTISRDNAKNTVYLQLNSLKPEDTAVYYCAARIKYRYDWGQGTQVTVSS”: the “polyreactivity (PSR sort gate)” value is listed as “low polyreactivity”.

With “QVQLVQSGAGLVQAGGSLRLSCAPSGFIFRRYDMAWYRQAPGKERELVAAITSSGGTTYYADSVKGRFTNSRDNAKNTVYLQMNSLKPEDTAVYYCNAVRGVYARRSDYWGQGTQVTVSS”, the “polyreactivity (PSR sort gate)” value is recorded as “high polyreactivity”.

On to “QVQLVESGGGLVQAGGSLRLSCAASGFIFYYYAMGWYRQAPGKERELVAAITSSGGSTYYADSVKGRFTISRDNAKNTVYLQKNSLKPEDTAVYYCAAYYHGRMDYWGQGTQVTVSS”, for which the “polyreactivity (PSR sort gate)” value is given as “high polyreactivity”.

“QVQLVESGGGLVQAGASLRLSCAASGSIFYYDMGWDRQAPGKERELVAAITWSGGSTYYADSVKGRFTISRDNAKNTVYLQMNSLKPEDTAVYYCAAIFGYGSTWWRWGKDDYWGQGTQVTVSS”: the “polyreactivity (PSR sort gate)” value is listed as “high polyreactivity”.

Regarding “QVQLVESGGGLVQAGGSLRLSCAASGRTFQNNAMGWYRQAPGKERELVAAISWRGTSTYYADSVKGRFTISRDNANNTVYLQMNSLKPEDTAVYYCAAYPKYGFEFKYGYWGQGTQVTVSS”, the “polyreactivity (PSR sort gate)” value is reported as “high polyreactivity”.

As to “QVQLVESGGGLVQAGGSLRLSCAASGGTFGNYAMGWYRQAPGKERELVAAISTRGGSTYYADSVKGRFTISCDNAKNTVYLQMNSLKPEDTAVYYCNARIKRPRGVYGGDYWGQGTQVTVSS”, the “polyreactivity (PSR sort gate)” value is reported as “high polyreactivity”.

With “QVQLVESGGGLVQAGGSLRLSCAASGSIFGNYVMGWYRQSPGKERELVAAISWSGGTNYADSVKGRFTISRDNAKNTVYLQMNSLKPEDTAVYYCATVIRGHKRFAYGYWGQGTQVTVSS”, the “polyreactivity (PSR sort gate)” value is given as “high polyreactivity”.

As for “QVQLVESGGGLVQAGGSLRLSCAASGYTFRGYAMGWSRQAPGKERELVAAISWSGGRTYYADSVKGRFTISRDNAKYTVYLQMNSLKPEDTAVYYCAAPGQHSWGQGTQVTVSS”, the “polyreactivity (PSR sort gate)” value was “high polyreactivity”.

Turning to “QVQLVESGGGLVQAGGSLRLSCAASGFIIHRYAMGWYRQAPGKERELVAVITSGGGSTYYADSVKGRFTISRDNAKNTVYLQMNSLKPEDTAVYYCAAYQPYNSRYRYDYWGQGTQVTVSS”, the “polyreactivity (PSR sort gate)” value is given as “high polyreactivity”.

For “QVQLVESGGGLVQAGGSLRLSCAASGSTFSAYAMGWYRQAPGKERELVATITSDGSTNYADSVKGRFTISRDNAKNTVYLQMNSLKPEDTAVYYCAAKRQYKRSRMYYWGQGTQVTVSS”, the “polyreactivity (PSR sort gate)” value was “high polyreactivity”.

As for “QVQLVESGGGLVQAGGSLRLSCASSGLIFGRNVMGWYRQAPGKERELVAAISWSGGRTYYADSVKGRFTISRDNAKNTVYLQMNSLKPEDTAVYYCAADDGPGFDYWGQGTQVTVSS”, the “polyreactivity (PSR sort gate)” value is “high polyreactivity”.

With “QVQLVESGAGLVQAGGSLRLSCAASGRTFRPNPMGWYRPAPWKDRELVASITSGGRTNYADSVKGRFTISRDNAKNTVYLQMNSLKPEDTAVYYCAADHYHGYWKYDYWGQGTQVTVSS”, the “polyreactivity (PSR sort gate)” value was “low polyreactivity”.

As for “QVQLVESGGGLVQAGGSLRLSCAASGRTFIHYAMVWYRQAPGKERELVAAISRRGGSTYYADSVKGRFTISRDNAKNTVYLQMNSLKPEDTAVYYCAKATTTREPKYGYWGQGTQVTVSS”, the “polyreactivity (PSR sort gate)” value is recorded as “high polyreactivity”.

As to “QVQLVESGGGLVQAGGSLRLSCAASGRIFGYYAMGWYRQAPGKERELVAAITINGGRTYYADSVKGRFTISRDNAKNTVYLQMNSLKPEDTAVYYCTATSRYNRLGYWGQGTQVTVSS”, the “polyreactivity (PSR sort gate)” value is recorded as “high polyreactivity”.

For the sequence “QVQLVESGGGLVQAGGSLRLSCAASGFTFEGYAMGWYRQAPGKERELVAAISSNGGRTYYADSVKGRFTISRDNAKNTVYLQMNSLKPEDTAVYYCNARRAYSGPDYDYYHGRRYDYWGQGTQVTVSS”, the “polyreactivity (PSR sort gate)” value was “low polyreactivity”.

For the sequence “QVQLVESGGGLLQAGGSLRLSSAASGFIFNWYAMGGYRQAPGKERELVAAITSGGSTNYADSVKGRFTISRDNAKNTVYLQMNSLKPEDTAVYYCAARHWRRYGYCGQGTQVTVSS”, the “polyreactivity (PSR sort gate)” value was “high polyreactivity”.

As to “QVQLVESGGGLVQAGGSLRLSCAASGFIFRWYAMGWYRQAPGKERELVAANSSGSSTTYADSVKGRFTISRDNAKNTVYLQMNSLKPEDTAVYYCNRGPRIYRYQYDYWGQGTQVTVSS”, the “polyreactivity (PSR sort gate)” value is on record as “high polyreactivity”.

With “QVQLVESGGGLVQAGGSLRLSCAASGSIFAYYAMGWYRQAPGKERELVAVIRSGGSTYYADSVKGRFTISRDNEKNTVYLQMNSLNPEDTAVYYCAAPSYRPSRGDYWGQGTQVTVSS”, the “polyreactivity (PSR sort gate)” value is listed as “high polyreactivity”.

On to “QVQLVESGGGLDPAGGSLRLSCAASGSTFQYNAKGWYRQAPGKERELVAAISGSGGSTYYADSVKGRFTISRDNAKNTVYLQMNSLKPEDTAVYYCNADVSALWWPEEWYNASEFDYWGQGTQVTVSS”, for which the “polyreactivity (PSR sort gate)” value is “low polyreactivity”.

For “QAQLVESGGGLVQAGGSLRLSSAASGFIFWGNAMGWYRQAPGKERELVAGIRSLGGTTSYADSVKGRFTISRDNAKNTVYLQMNSLKPEDTAVYYCAAGYGAEFDYWGQGTQVTVSS”, the “polyreactivity (PSR sort gate)” value is on record as “low polyreactivity”.

Take “QVQLVESGGGLVQAGGSLRLSCAASGSIFWRYTMGWYRQAPGKERELVAAISTRGGSTYYADSVKGRFTISRDNAKNTVYLQMNSLKPEDTAVYYCNAVEGSRLPYDYWGQGTQVTVSS”: the “polyreactivity (PSR sort gate)” value was “low polyreactivity”.

For “QVQLVESGGGLVQAGGSLRLSCAASGFIITSNAMGWYRQAPGKERELVAAITWSGGRTYYADSVKGRFTISRDNAKNTVYLQMNSLKPEDTAVYYCAAGYYKGFTLVRVIFDYWGHGTQVTVSS”, the “polyreactivity (PSR sort gate)” value is listed as “low polyreactivity”.

With “QVQLVESGGGLVQAGGSLRLSCAASGRIFQTYDMGWYRQAPGKERELVARIRLSGGSTYYADSVKGRFTISRDNAKNTVYLQMNSLKPEETAVYYCAARYSRALFTDPYYYWGQGTQVTVSS”, the “polyreactivity (PSR sort gate)” value is reported as “high polyreactivity”.

“QVQLVESGGGLVQAGGSLRLSCAASGFILPVYAMGWYRQAPGTERELVAAISSGGSTNYADSVKGRFTISRDNAKNTVYLQMNSLKPEDTEVYYCNKVDWYFGGYKYDYWGQGTQVTVSS”: the “polyreactivity (PSR sort gate)” value was “low polyreactivity”.

Regarding “QVQLVESGVGIGQAGGSLRLTCAASGRTVSKYGKGWYRHAPGKEREMVAAISGRGGSTYYADSVKGRFTISRDHAKNTVYLQMNSLNPEDNAVYYCAQDLSYRPHGHGDGHYDFWGQGTQVTVSS”, the “polyreactivity (PSR sort gate)” value was “low polyreactivity”.

For the sequence “QVQLVESGGGLVQAGGSLRLSCAASGRTFRRYVMGWYRQAPGKERELGAAITGSGGSTYYADSVKGRFTISRDNAKNTVYLQMNSLKPEDTAVYYCAADGICFYRSYGYDYWGQGTQVNVSS”, the “polyreactivity (PSR sort gate)” value is on record as “high polyreactivity”.

Turning to “QVQLVESGGGLVQAGGSLRLSCAASGLTFGDYVMGWYRQAPGKERELVATITSDGGTTYADSVKGRFTISRDNAKNTVYLQMNSLKPEDTAVYYCAAGVTGPSDDYDYWGQGTQVTVSS”, the “polyreactivity (PSR sort gate)” value is “low polyreactivity”.

Take “QVQLVESGGGLVQAGGSLRLSCAASGGIFSGNDMGWYRHAPGKESEFVAAISWSGGSTYYADSVKGRFTISRDNAKNTVYLQMNSLKPEDTAVYYCAAAHYFLGPQGASFYYWGQGTQVTVSS”: the “polyreactivity (PSR sort gate)” value was “low polyreactivity”.

Consider “QVQLVESVGCLVQAGGSLRLSCPASGFNFPGYALGWYRQAPGKERELVAAITGSGGRTYYADSVKGRFTISRDNAKNTVYLQMNSLKQEDTAVYYCLARSYYNWNDYWGQGTQVTVSS”, for which the “polyreactivity (PSR sort gate)” value is given as “high polyreactivity”.

Take “QVQLVESGGGLVQAGGSLRLSCAASGRIIKFYAMGWYRQAPGKERELVARISRSGGRTYYADSVKGRFTISRDNAKNTVYLQMNSLKPEDTAVYYCAADTQSVATYDYWGQGTQVTVSS”: the “polyreactivity (PSR sort gate)” value was “low polyreactivity”.

With “QVQLVESGGGLVQAGGSLRLSSAASGSTFTLYAMGWYRQAPGKERELVATITGSGGSTNYADSVKGRFTISRDNAKNTVYLQMNSLKPEDTAVYYCAADYAVYSFTEFNYWGQGTQVTVSS”, the “polyreactivity (PSR sort gate)” value is “high polyreactivity”.

As to “QVQLVESGGGLVQAGGSLRLSCAASGRIFSQYAMGWYRQAPGKERELVAAISRRTGSTYYADSVKGRFTISRDNAKNTVYLQMNSLKPEDTAVYYCAAASKPWYYYWGQGTQVTVSS”, the “polyreactivity (PSR sort gate)” value is given as “high polyreactivity”.

Take “QVQLVESGGGFVQAGGSLRLSCAGSGSTFTSYAMGWYRQAPGKERELVASIRSTSGRTYYADSVKGRFTISRDNAKNTVYLQMNSQKPQDTAVYYCAAATYGTWWTYADNPYDYWGQGTQGTVSS”: the “polyreactivity (PSR sort gate)” value is listed as “high polyreactivity”.

Take “QVQLVESGGCLVQAGGSLRLSCAASGFTFDIYAMGWYRQAPGKERELVATISRSGGTTYYADSVKGRFTISRDNAKNTVYLQMNCLKPEDTAVYYCAAAAYYYRYRYRMYYWGQGTQVTVSS”: the “polyreactivity (PSR sort gate)” value is on record as “high polyreactivity”.

As to “QVQLVESGGGLVQAGGSLRLSCAASGITFIRYAMGWYRQAPGKERELVAAIDWDGSSTYYADSVKGRFTISRDNAKNTGYLQMNSLKPEDTSVYYCNTDYTGPDGTDDYDYWGQGTQVTVSS”, the “polyreactivity (PSR sort gate)” value is recorded as “low polyreactivity”.

Consider “QVQLVESGGGLVQAGGSHRLSCAASGFTFTYYAMGWYRQAPGKERELVADITSGGGTNYADSVKGRFTISRDNAKNTVFLQMNSLKPEDTAVYYCAADAYHQGMDYWGQGTQVTVSS”, for which the “polyreactivity (PSR sort gate)” value is listed as “low polyreactivity”.

With “QVQLVESGGGLVQAGGSLRLSFAASGRTFYQYGQGWYRQAPGKERELVAAISDSGGGTYYADSVKGRFTFSRDNAKNTVYLQMNSLIPEDTAVYYCAATYVGPRRRYYYWGQGTQVTVSS”, the “polyreactivity (PSR sort gate)” value is “high polyreactivity”.

Take “QVQLVESGGGLVQAGGSLRLSCAASGRIFSSNAMGWYRKAPGKEREFVAAINESGGITFYADSVKGRFTISRDNAKNTVYLQLNSLIPEDTAVYYCAKRDYSPWPADGYPYDYDYWGQGTQVTVSS”: the “polyreactivity (PSR sort gate)” value was “low polyreactivity”.

On to “QVQHVESGGGLVQAGGSLRLSCAASGSIFVWYAMGWYRQAHGKERELVAAINWSGGRTYYADSVKGRFTISRDNAKNTVYLQMNSLKPEDTAVYYCAAELRRSDTYNYWGQGTQVTVSS”, for which the “polyreactivity (PSR sort gate)” value is given as “high polyreactivity”.
